Marks after values point to notes of the source that are not given here.
Assays:
Type in all cases: biochemical
[1] = thioesterase activity (production of TNB at 412 nm); conditions: crude cell extract; 200 μM substrate; expressed from pCA24N
From the text: (§1) For AtoB and thioesterase characterization assays, the pCA24N-gene (-gfp) plasmids from the ASKA collection^44 were used. For expression of E. gracilis TER for kinetic characterization, the egTER gene was cloned into pTrcHis2A using the In-Fusion protocol (Clontech Laboratories, Inc., Mountain View, Calif.) following PCR amplification from the aforementioned codon-optimized egTER containing plasmid with the primer pair of F1pTH6hisEgter and R1pTH6hisEgter (Supplementary Table S3).
(§2) Cultures for enzymatic assays were grown overnight in 100 mL of LB media at 37° C. in 250 mL baffled flasks (Wheaton Industries, Inc., Millville, N.J.) in E. coli BL21 (DE3) cells induced with either 1 mM IPTG (pCA24N, pTrcHis2A) or 1 mM Arabinose (pUCBB-pBAD) at an OD600˜0.6, or expressed constitutively (pUCBB-ntH6). Reactions were monitored on either a Synergy HT plate reader (BioTek Instruments, Inc., Winooski, Vt.) at 25° C. (for reactions monitored at 300 nm or higher) or in a Biomate 5 Spectrophotometer (Thermo Scientific, Waltham, Mass.) for reactions at 263 nm.
(§3) For specific activity assays (reported in μmol substrate/mg protein/min) these supernatant fractions were utilized and protein concentration was established using the Bradford Reagent (Thermo Scientific, Waltham, Mass.) using BSA as the protein standard. Linearity was established for each reaction and the background non-enzymatic rate was subtracted to establish the activity.
(§4) Thioesterase activity was monitored by following the production of TNB at 412 nm ([…])^30. Reactions were carried out in the presence of 100 mM Tris pH 7.5, 200 mM KCl, […] DTNB and 200 μM of the ‘-CoA’ substrate in a volume of 200 μL at 25° C.

[2] = as above; conditions: crude cell extract; 200 μM substrate; expressed from pCA24N; remark: listed apart in the source
From the text: as §1, §2, §3
For kinetic characterization, an appropriate amount of enzyme was established by checking linear range near predicted KM values. Then, the rates were measured for a range of substrates in order to establish kcat and KM. In the cases of FadB for the crotonase reaction and FadA in the “forward” thiolase reaction coupled with HBD, substrate saturation could not be established, as such, the kcat/KM for the reaction was determined by dividing the linear slope of Velocity vs. [Substrate] by the amount of enzyme used in the assays. For reactions that could be saturated, Velocity vs. [Substrate] was fitted by the EnzKIN Matlab module (mathworks.com/matlabcentral/fileexchange/26653) to establish Vmax and KM.
as §4

[3] = β-hydroxybutyryl-CoA dehydrogenase assay (NADH dependent reduction of acetoacetyl-CoA)
Description: as §2, with “nm. […]” for “nm.”
(§5) For kinetic characterization, his-tagged proteins of AtoB, FadA, FadB, caHBD, egTER were purified from the B-PER supernatant fractions using Talon Metal Affinity Resin (Clontech Laboratories, Inc., Mountain View, Calif.) using gravity purification. […] Enzyme concentration was established by measuring the absorbance at […] and extinction coefficients predicted for each enzyme by the ProtParam program (web.expasy.org/protparam/).
(§6) For kinetic characterization, an appropriate amount of enzyme was established by checking linear range near predicted KM values. Then, the rates were measured for a range of substrates in order to establish kcat and KM. […]

[4] = crotonase activity (loss of crotonoyl-CoA at 263 nm); conditions: substrate Crotonyl-CoA; supernatant fraction; expressed from pUCBB-ntH6
Description: as §2, with “nm. […]” for “nm.”
as §5, §6

[5] = Butyryl-CoA dehydrogenase activity utilizing ferricenium ion
Description: Cells were lysed using Bacterial Protein Extraction Reagent (B-PER) (Thermo Scientific, Waltham, Mass.) as per the prescribed protocol in order to obtain the supernatant containing the active enzymes. FadE and YdiO were purified following previously established methods^45 using the same growth conditions mentioned above.
Cell pellets were resuspended in 40 mL of 50 mM potassium phosphate buffer pH 7.2 and broken by disruption EmulsiFlex-05 homogenizer (Avestin, Ottawa, ON). Disrupted cells were then spun for 90 min at 4° C. at 120,000×g in a Optima L-80XP Ultracentrifuge (Beckman-Coulter, Schaumburg, Ill.) to produce the supernatant used for assays.
as §3
For FadE and YdiO, Butyryl-CoA dehydrogenase activity was measured utilizing ferricenium ion^49. Reactions were performed in 50 mM potassium phosphate pH 7.2, 0.4 mM MgSO4, 200 μM ferrocenium hexafluorophosphate, and 200 μM Butyryl-CoA and monitored the formation of the reduced ferrocene ion at 300 nm (ε=4.3 mM^−1 cm^−1).

Molecule | Specific activities of selected thioesterases on Decanyl-CoA [1] | Specific activities of selected thioesterases on Acetoacetyl-CoA [2] | Specific activities of selected thioesterases on Acetyl-CoA [2] | Specific activities of selected thioesterases on Butyryl-CoA [2] | Specific activities of selected thioesterases on Crotonyl-CoA [2] | Specific activities of selected thioesterases on RS-3-Hydroxybutyryl-CoA [2] | other results
YbgC: E. coli Acyl-CoA thioesterase (protein, UniProt P0A8Z3 1-134, looked up) Acyl-CoA thioester hydrolase …: MNTTLFRWPVRVYYEDTDAGGVVYHASYVAFYERARTEMLRHHHFSQQALMAERVAFVVRKMTVEYYAPARLDDMLEIQTEITSMRGTSLVFTQRIVNAENTLLNEAEVLVVCVDPLKMKPRALPKSIVAEFKQ | 0.06 ± 0.02 μmol/mg protein/min | 0.065 ± 0.002 μmol/mg protein/min | 0.036 ± 0.002 μmol/mg protein/min | 0.045 ± 0.007 μmol/mg protein/min | 0.006 ± 0.001 μmol/mg protein/min | 0.016 ± 0.004 μmol/mg protein/min | 
paaH: E. coli 3-hydroxyadipyl-CoA dehydrogenase that participates in the degradation of phenylacetate (protein, UniProt P76083 1-475, looked up) 3-hydroxyadipyl-CoA …: MMINVQTVAVIGSGTMGAGIAEVAASHGHQVLLYDISAEALTRAIDGIHARLNSRVTRGKLTAETCERTLKRLIPVTDIHALAAADLVIEAASERLEVKKALFAQLAEVCPPQTLLTTNTSSISITAIAAEIKNPERVAGLHFFNPAPVMKLVEVVSGLATAAEVVEQLCELTLSWGKQPVRCHSTPGFIVNRVARPYYSEAWRALEEQVAAPEVIDAALRDGAGFPMGPLELTDLIGQDVNFAVTCSVFNAFWQERRFLPSLVQQELVIGGRLGKKSGLGVYDWRAEREAVVGLEAVSDSFSPMKVEKKSDGVTEIDDVLLIETQGETAQALAIRLARPVVVIDKMAGKVVTIAAAAVNPDSATRKAIYYLQQQGKTVLQIADYPGMLIWRTVAMIINEALDALQKGVASEQDIDTAMRLGVNYPYGPLAWGAQLGWQRILRLLENLQHHYGEERYRPCSLLRQRALLESGYES |  |  |  |  |  |  | specific activity toward the reduction of acetoacetyl-CoA ([3]; purified enzyme, data not shown): moderate
FadB: E. coli hydroxyacyl-CoA dehydrogenase and enoyl-CoA hydratase, part of fatty acid oxidation complex (protein, UniProt P21177 1-729, looked up) Fatty acid oxidation complex …: MLYKGDTLYLDWLEDGIAELVFDAPGSVNKLDTATVASLGEAIGVLEQQSDLKGLLLRSNKAAFIVGADITEFLSLFLVPEEQLSQWLHFANSVFNRLEDLPVPTIAAVNGYALGGGCECVLATDYRLATPDLRIGLPETKLGIMPGFGGSVRMPRMLGADSALEIIAAGKDVGADQALKIGLVDGVVKAEKLVEGAKAVLRQAINGDLDWKAKRQPKLEPLKLSKIEATMSFTIAKGMVAQTAGKHYPAPITAVKTIEAAARFGREEALNLENKSFVPLAHTNEARALVGIFLNDQYVKGKAKKLTKDVETPKQAAVLGAGIMGGGIAYQSAWKGVPVVMKDINDKSLTLGMTEAAKLLNKQLERGKIDGLKLAGVISTIHPTLDYAGFDRVDIVVEAVVENPKVKKAVLAETEQKVRQDTVLASNTSTIPISELANALERPENFCGMHFFNPVHRMPLVEIIRGEKSSDETIAKVVAWASKMGKTPIVVNDCPGFFVNRVLFPYFAGFSQLLRDGADFRKIDKVMEKQFGWPMGPAYLLDVVGIDTAHHAQAVMAAGFPQRMQKDYRDAIDALFDANRFGQKNGLGFWRYKEDSKGKPKKEEDAAVEDLLAEVSQPKRDFSEEEIIARMMIPMVNEVVRCLEEGIIATPAEADMALVYGLGFPPFHGGAFRWLDTLGSAKYLDMAQQYQHLGPLYEVPEGLRNKARHNEPYYPPVEPARPVGDLKTA |  |  |  |  |  |  | Specific Activity ([3]; substrate Acetoacetyl-CoA, supernatant fraction, expressed from pUCBB-ntH6): 0.185 ± 0.001^c μmol/mg/min; Specific Activity [4]: 0.051 ± 0.004^c μmol/mg/min
TesB: E. coli thioesterase II (protein, UniProt P0AGG2 2-286, looked up) Acyl-CoA thioesterase 2: SQALKNLLTLLNLEKIEEGLFRGQSEDLGLRQVFGGQVVGQALYAAKETVPEERLVHSFHSYFLRPGDSKKPIIYDVETLRDGNSFSARRVAAIQNGKPIFYMTASFQAPEAGFEHQKTMPSAPAPDGLPSETQIAQSLAHLLPPVLKDKFICDRPLEVRPVEFHNPLKGHVAEPHRQVWIRANGSVPDDLRVHQYLLGYASDLNFLPVALQPHGIGFLEPGIQIATIDHSMWFHRPFNLNEWLLYSVESTSASSARGFVRGEFYTQDGVLVASTVQEGVMRNHN | 0.6 ± 0.1 μmol/mg protein/min | 0.056 ± 0.001 μmol/mg protein/min | 0.030 ± 0.001 μmol/mg protein/min | 0.101 ± 0.002 μmol/mg protein/min | 0.010 ± 0.001 μmol/mg protein/min | 0.032 ± 0.002 μmol/mg protein/min | 
FadE: E. coli acyl-CoA dehydrogenase, a medium-long-chain fatty acyl-CoA dehydrogenase (protein, UniProt Q47146 1-814, looked up) Acyl-coenzyme A dehydrogenase: MMILSILATVVLLGALFYHRVSLFISSLILLAWTAALGVAGLWSAWVLVPLAIILVPFNFAPMRKSMISAPVFRGFRKVMPPMSRTEKEAIDAGTTWWEGDLFQGKPDWKKLHNYPQPRLTAEEQAFLDGPVEEACRMANDFQITHELADLPPELWAYLKEHRFFAMIIKKEYGGLEFSAYAQSRVLQKLSGVSGILAITVGVPNSLGPGELLQHYGTDEQKDHYLPRLARGQEIPCFALTSPEAGSDAGAIPDTGIVCMGEWQGQQVLGMRLTWNKRYITLAPIATVLGLAFKLSDPEKLLGGAEDLGITCALIPTTTPGVEIGRRHFPLNVPFQNGPTRGKDVFVPIDYIIGGPKMAGQGWRMLVECLSVGRGITLPSNSTGGVKSVALATGAYAHIRRQFKISIGKMEGIEEPLARIAGNAYVMDAAASLITYGIMLGEKPAVLSAIVKYHCTHRGQQSIIDAMDITGGKGIMLGQSNFLARAYQGAPIAITVEGANILTRSMMIFGQGAIRCHPYVLEEMEAAKNNDVNAFDKLLFKHIGHVGSNKVRSFWLGLTRGLTSSTPTGDATKRYYQHLNRLSANLALLSDVSMAVLGGSLKRRERISARLGDILSQLYLASAVLKRYDDEGRNEADLPLVHWGVQDALYQAEQAMDDLLQNFPNRVVAGLLNVVIFPTGRHYLAPSDKLDHKVAKILQVPNATRSRIGRGQYLTPSEHNPVGLLEEALVDVIAADPIHQRICKELGKNLPFTRLDELAHNALVKGLIDKDEAAILVKAEESRLRSINVDDFDPEELATKPVKLPEKVRKVEAA |  |  |  |  |  |  | activity upon purification ([5]; purified enzyme): no detectable activities; Specific Activity ([5]; substrate Butyryl-CoA, crude extract of cells, expressed from pCA24N): 0.008 ± 0.001^b μmol/mg/min
